Source: patent publication EP4428150A1 (Peptide Logic LLC, dated 2024)

Experiments:
human placental lactogen = human placental lactogen (human, UniProt P0DML2 27-217); test: cell-based or functional assay
cynomolgus monkey PRL [1] = molecular target: T1, cynomolgus monkey PRL (cynomolgus monkey, UniProt A0A2K5X975 30-228); test: cell-based or functional assay
T1 sequence: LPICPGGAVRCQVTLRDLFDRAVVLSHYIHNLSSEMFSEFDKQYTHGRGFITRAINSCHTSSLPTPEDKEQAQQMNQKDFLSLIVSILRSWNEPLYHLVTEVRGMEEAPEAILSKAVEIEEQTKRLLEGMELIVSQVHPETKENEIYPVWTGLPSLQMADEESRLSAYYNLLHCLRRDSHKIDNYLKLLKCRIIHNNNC

mouse PRL [2] = molecular target: T2, mouse PRL (mouse, UniProt P06879 30-226); test: cell-based or functional assay
T2 sequence (looked up): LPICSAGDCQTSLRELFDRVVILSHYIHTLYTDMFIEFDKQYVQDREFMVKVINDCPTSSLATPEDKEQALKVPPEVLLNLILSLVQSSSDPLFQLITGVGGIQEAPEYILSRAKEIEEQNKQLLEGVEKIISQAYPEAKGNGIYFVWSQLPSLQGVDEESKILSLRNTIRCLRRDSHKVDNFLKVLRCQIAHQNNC

human prolactin [3] = molecular target: T3, human prolactin (human, UniProt P01236 29-227); test: cell-based or functional assay
T3 sequence (looked up): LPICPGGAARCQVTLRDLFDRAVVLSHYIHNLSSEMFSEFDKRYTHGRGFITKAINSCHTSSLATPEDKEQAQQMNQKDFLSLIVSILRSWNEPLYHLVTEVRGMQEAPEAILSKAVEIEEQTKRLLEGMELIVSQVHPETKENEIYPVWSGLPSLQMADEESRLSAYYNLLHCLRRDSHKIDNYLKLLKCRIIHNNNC

human growth hormone = human growth hormone (human, UniProt P01241 27-217); test: cell-based or functional assay
cynomolgus monkey PRL [4] = molecular target: T1, cynomolgus monkey PRL; test: bio-layer interferometry (Octet-RED96), antibody captured on anti-human IgG Fc sensors, 1:1 fit
mouse PRL [5] = molecular target: T2, mouse PRL; test: bio-layer interferometry (Octet-RED96), antibody captured on anti-human IgG Fc sensors; kinetics not determined
human prolactin [6] = molecular target: T3, human prolactin; test: bio-layer interferometry (Octet-RED96), antibody captured on anti-human IgG Fc sensors, 1:1 global fit

Sequence of human growth hormone (P01241 27-217 limits assumed): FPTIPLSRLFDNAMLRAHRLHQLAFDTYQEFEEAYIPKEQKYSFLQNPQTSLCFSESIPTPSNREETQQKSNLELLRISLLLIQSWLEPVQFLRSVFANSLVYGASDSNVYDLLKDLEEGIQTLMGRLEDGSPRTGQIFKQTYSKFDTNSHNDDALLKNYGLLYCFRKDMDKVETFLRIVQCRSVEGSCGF
Sequence of human placental lactogen (P0DML2 27-217 limits assumed): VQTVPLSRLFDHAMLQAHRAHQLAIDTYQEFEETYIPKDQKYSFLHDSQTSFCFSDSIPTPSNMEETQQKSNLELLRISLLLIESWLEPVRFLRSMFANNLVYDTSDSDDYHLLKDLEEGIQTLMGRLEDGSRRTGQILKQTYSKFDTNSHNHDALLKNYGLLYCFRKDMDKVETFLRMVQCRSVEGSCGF

B1: Antibody 37 (antibody, human IgG4 S228P, kappa, V domains shown)
VH: QVQLVQSGAEVKKPGASVKVSCKASGYTFSNFWIEWVRQAPGQRLEWMGEIFPGTGSTYYTEKFKVRVTITRDTSASTAYMELSSLRSEDTAVYYCARRGYSDSWFAHWGQGTLVTVSS
VL: DIQMTQSPSSLSASVGDRVTITCRASESVDMYGKSFMHWYQQKPGKAPKLLIYRASTLESGVPSRFSGSGSGTDFTLTISSLQPEDFATYYCQQNVEAPLTFGGGTKVEIKR
notes: Humanized IgG4(S228P), IGHV1-3 heavy and IGKV1-39 light frameworks; also called humanized anti-hPRL antibody
IC50 in the in vitro CHO-hPRLR phospho-STAT5 cell signaling assay (human placental lactogen): > 3620 nM | IC50 in the in vitro CHO-hPRLR phospho-STAT5 cell signaling assay (cynomolgus monkey PRL [1]): 4.7 nM | IC50 in the in vitro CHO-hPRLR phospho-STAT5 cell signaling assay (mouse PRL [2]): > 150 nM | IC50 in the in vitro CHO-hPRLR phospho-STAT5 cell signaling assay (human prolactin [3]): 3.1 nM | IC50 in the in vitro CHO-hPRLR phospho-STAT5 cell signaling assay (human growth hormone): > 150 nM | Kd (cynomolgus monkey PRL [4]): 0.565 nM | koff (cynomolgus monkey PRL [4]): 0.000307 s⁻¹ | kon (cynomolgus monkey PRL [4]): 543000 M⁻¹ s⁻¹ | Kd (mouse PRL [5]): > 100 nM | Kd (human prolactin [6]): 0.621 nM | koff (human prolactin [6]): 0.000215 s⁻¹ | kon (human prolactin [6]): 347000 M⁻¹ s⁻¹
